# Data taken from patent publication US20150344570A1 (published 2015).
# T1: FcγRIIa H (human, UniProt P12318 34-217)
# T1 construct: extracellular domain; also called FcγRIIa type H; 2aH; not shown: His tag at the C terminus
# T1 sequence (looked up): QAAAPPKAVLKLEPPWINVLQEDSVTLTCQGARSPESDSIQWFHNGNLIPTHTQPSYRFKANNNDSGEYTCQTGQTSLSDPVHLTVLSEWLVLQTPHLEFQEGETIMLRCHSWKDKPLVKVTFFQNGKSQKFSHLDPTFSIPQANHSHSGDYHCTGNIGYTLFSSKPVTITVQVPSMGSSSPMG
# T2: FcγRIIa H (FcγRIIa, allotype with His at position 131), extracellular domain with C-terminal His tag (human, UniProt P12318 34-217)
# T2 construct: extracellular domain; also called FcgRIIa H; 2aH; not shown: His tag at the C terminus
# T2 sequence (looked up): T1 sequence (looked up)
# T3: FcγRIIb (human, UniProt P31994 43-217)
# T3 construct: extracellular domain; also called 2b; not shown: His tag at the C terminus
# T3 sequence (looked up): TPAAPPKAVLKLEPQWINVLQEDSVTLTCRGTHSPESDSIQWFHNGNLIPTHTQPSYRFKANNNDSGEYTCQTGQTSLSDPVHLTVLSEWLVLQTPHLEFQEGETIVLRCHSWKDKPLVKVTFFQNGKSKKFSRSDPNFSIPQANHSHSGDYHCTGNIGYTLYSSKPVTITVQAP
# T4: FcγRIIb, extracellular domain with C-terminal His tag (human, UniProt P31994 43-217)
# T4 construct: extracellular domain; also called FcgRIIb; 2b; not shown: His tag at the C terminus
# T4 sequence (looked up): T3 sequence (looked up)
# B1: GpH7-A5/GpH7-B3 variant G236_02A/GpL16-k0 (antibody, human IgG1, kappa)
# heavy 1: not shown
# heavy 2: not shown
# light: DIVMTQSPLSLPVTPGEPASISCQASESLVHSNRNTYLHWYLQKPGQSPQLLIYKVSNRFSGVPDRFSGSGSGTDFTLKISRVEAEDVGVYYCSQNTHVPPTFGQGTKVEIERTVAAPSVFIFPPSDEQLKSGTASVVCLLNNFYPREAKVQWKVDNALQSGNSQESVTEQDSKDSTYSLSSTLTLSKADYEKHKVYACEVTHQGLSSPVTKSFNRGEC
# notes: Heterodimerized IgG1; mutation in the GpH7-B3 chain only; also called He Ab
# B2: GpH7-A5/GpH7-B3 variant G236_03V/GpL16-k0 (antibody, human IgG1, kappa)
# heavy 1: not shown
# heavy 2: not shown
# light: B1 light
# notes: as for B1
# B3: GpH7-A5/GpH7-B3 variant G236_04F/GpL16-k0 (antibody, human IgG1, kappa)
# heavy 1: not shown
# heavy 2: not shown
# light: B1 light
# notes: as for B1
# B4: GpH7-A5/GpH7-B3 variant G236_05P/GpL16-k0 (antibody, human IgG1, kappa)
# heavy 1: not shown
# heavy 2: not shown
# light: B1 light
# notes: as for B1
# B5: GpH7-A5/GpH7-B3 variant G236_06M/GpL16-k0 (antibody, human IgG1, kappa)
# heavy 1: not shown
# heavy 2: not shown
# light: B1 light
# notes: as for B1
# B6: GpH7-A5/GpH7-B3 variant L235_12R/GpL16-k0 (antibody, human IgG1, kappa)
# heavy 1: not shown
# heavy 2: not shown
# light: B1 light
# notes: as for B1
# B7: GpH7-A5/GpH7-B3 variant A327_03V/GpL16-k0 (antibody, human IgG1, kappa)
# heavy 1: not shown
# heavy 2: not shown
# light: B1 light
# notes: Heterodimerized anti-glypican-3 IgG1; mutation in one H chain only; also called He Ab
# B8: GpH7-A5/GpH7-B3 variant A327_07I/GpL16-k0 (antibody, human IgG1, kappa)
# heavy 1: not shown
# heavy 2: not shown
# light: B1 light
# notes: as for B7
# B9: GpH7-A5/GpH7-B3 variant A327_08L/GpL16-k0 (antibody, human IgG1, kappa)
# heavy 1: not shown
# heavy 2: not shown
# light: B1 light
# notes: as for B7
# B10: GpH7-A5/GpH7-B3 variant A327_09D/GpL16-k0 (antibody, human IgG1, kappa)
# heavy 1: not shown
# heavy 2: not shown
# light: B1 light
# notes: as for B7
# B11: GpH7-A5/GpH7-B3 variant A327_10E/GpL16-k0 (antibody, human IgG1, kappa)
# heavy 1: not shown
# heavy 2: not shown
# light: B1 light
# notes: as for B7
# B12: GpH7-A5/GpH7-B3 variant A327_14T/GpL16-k0 (antibody, human IgG1, kappa)
# heavy 1: not shown
# heavy 2: not shown
# light: B1 light
# notes: as for B7
# B13: GpH7-A5/GpH7-B3 variant A327_18N/GpL16-k0 (antibody, human IgG1, kappa)
# heavy 1: not shown
# heavy 2: not shown
# light: B1 light
# notes: as for B7
# B14: GpH7-A5/GpH7-B3 variant A330_05P/GpL16-k0 (antibody, human IgG1, kappa)
# heavy 1: not shown
# heavy 2: not shown
# light: B1 light
# notes: as for B7
# B15: GpH7-A5/GpH7-B3 variant I332_10E/GpL16-k0 (antibody, human IgG1, kappa)
# heavy 1: not shown
# heavy 2: not shown
# light: B1 light
# notes: as for B7
# B16: GpH7-A5/GpH7-B3 variant L328_03V/GpL16-k0 (antibody, human IgG1, kappa)
# heavy 1: not shown
# heavy 2: not shown
# light: B1 light
# notes: as for B7
# B17: GpH7-A5/GpH7-B3 variant L328_04F/GpL16-k0 (antibody, human IgG1, kappa)
# heavy 1: not shown
# heavy 2: not shown
# light: B1 light
# notes: as for B7
# B18: GpH7-A5/GpH7-B3 variant L328_05P/GpL16-k0 (antibody, human IgG1, kappa)
# heavy 1: not shown
# heavy 2: not shown
# light: B1 light
# notes: as for B7
# Molecular target: T1, FcγRIIa H
# Assay: SPR (Biacore); He/Con_2aH divided by He/Con_2b (FcγRIIa H over FcγRIIb)
row,Binder,He_2aH/2b (IIaH/IIb) [ratio]
1,B1,1.44
2,B2,3.39
3,B3,3
4,B4,3.34
5,B5,1.88
6,B6,3.16

# Molecular target: T2, FcγRIIa H (FcγRIIa, allotype with His …)
# Assay: SPR (Biacore); He/Con_2aH divided by He/Con_2b (FcγRIIb)
row,Binder,He_2aH/2b (IIaH/IIb) [ratio]
1,B7,0.54
2,B8,0.46
3,B9,0.74
4,B10,0.61
5,B11,0.65
6,B12,0.51
7,B13,0.59
8,B14,0.63
9,B15,0.76
10,B16,0.78
11,B17,0.33
12,B18,0.7

# Molecular target: T3, FcγRIIb
# Assay: SPR (Biacore), antibody captured, FcγR as analyte; binding relative to GpH7-A5/GpH7-B3/GpL16-k0 = 100
row,Binder,He/Con_2b
1,B1,96.5 % of control
2,B2,35.3 % of control
3,B3,39.3 % of control
4,B4,19 % of control
5,B5,45.5 % of control

# Molecular target: T1, FcγRIIa H
# Assay: as above
row,Binder,He/Con_2aH
1,B1,139 % of control
2,B2,119 % of control
3,B3,118 % of control
4,B4,63.5 % of control
5,B5,85.7 % of control
6,B6,30.3 % of control

# Molecular target: T4, FcγRIIb, extracellular domain with …
# Assay: SPR (Biacore), relative binding vs GpH7-A5/GpH7-B3/GpL16-k0
row,Binder,He/Con_2b
1,B7,94.7 % of HeCon Ab (=100)
2,B8,127 % of HeCon Ab (=100)
3,B9,63.1 % of HeCon Ab (=100)
4,B10,172 % of HeCon Ab (=100)
5,B11,140 % of HeCon Ab (=100)
6,B12,89.4 % of HeCon Ab (=100)
7,B13,113 % of HeCon Ab (=100)
8,B14,137 % of HeCon Ab (=100)
9,B15,142 % of HeCon Ab (=100)
10,B16,126 % of HeCon Ab (=100)
11,B17,219 % of HeCon Ab (=100)
12,B18,65.1 % of HeCon Ab (=100)

# Molecular target: T2, FcγRIIa H (FcγRIIa, allotype with His …)
# Assay: as above
row,Binder,He/Con_2aH
1,B7,51 % of HeCon Ab (=100)
2,B8,58.4 % of HeCon Ab (=100)
3,B9,46.9 % of HeCon Ab (=100)
4,B10,105 % of HeCon Ab (=100)
5,B11,91.3 % of HeCon Ab (=100)
6,B12,45.6 % of HeCon Ab (=100)
7,B13,66.8 % of HeCon Ab (=100)
8,B14,85.7 % of HeCon Ab (=100)
9,B15,108 % of HeCon Ab (=100)
10,B16,97.8 % of HeCon Ab (=100)
11,B17,71.7 % of HeCon Ab (=100)
12,B18,45.4 % of HeCon Ab (=100)
